Experimental findings from patent US20230357367A1 are described below.

The target of experiment [1] is T1, SARS-CoV-2 spike S2 peptide 1149-1167 (C-terminal end of the stem helix), biotinylated (SARS-CoV-2). Briefly: SPR, Fab over captured biotin-peptide, 25 C. On the technique in general: In SPR one partner is held on a chip, and binding of the other changes the refractive index at the surface.
For experiment [2], the target named is SARS-CoV-2 spike S2 peptide 1143-1162 (stem helix region), biotinylated (SARS-CoV-2). As to the kind of experiment: SPR, Fab over captured biotin-peptide, 25 C.
Experiment [3] concerns the target T2, SARS-CoV-2 spike S2 peptide 1153-1167, biotinylated (SARS-CoV-2). As to the kind of experiment: SPR, Fab over captured biotin-peptide, 25 C.
For experiment [4], the target named is T3, SARS-CoV-2 spike S2 peptide 1149-1163, biotinylated (SARS-CoV-2). As to the kind of experiment: SPR, Fab over captured biotin-peptide, 25 C.
Experiment [5] has as its target T1, SARS-CoV-2 spike S2 peptide 1149-1167 …. Briefly: SPR, Fab over captured biotin-peptide, 25 C. This is another data set of the same source.
Experiment [6] has as its target SARS-CoV-2 spike S2 peptide 1137-1151, biotinylated (SARS-CoV-2). Briefly: DELFIA, IgG titrated on captured biotin-peptide. Further details: unit not given beside the values.
Experiment [7] addresses SARS-CoV-2 spike S2 peptide 1157-1171, biotinylated (SARS-CoV-2). Briefly: DELFIA, IgG titrated on captured biotin-peptide. Further details: unit not given beside the values.
Experiment [8] concerns the target T2, SARS-CoV-2 spike S2 peptide 1153-1167, …. Briefly: DELFIA, IgG titrated on captured biotin-peptide. More on the design: unit not given beside the values.
The target of experiment [9] is T3, SARS-CoV-2 spike S2 peptide 1149-1163, …. Briefly: DELFIA, IgG titrated on captured biotin-peptide. Further details: unit not given beside the values.
The target of experiment [10] is HIV-1 Env peptide (negative control 15-mer), biotinylated (HIV-1). As to the kind of experiment: DELFIA, IgG titrated on captured biotin-peptide. Further details: unit not given beside the values.
For experiment [11], the target named is SARS-CoV-2 spike S2 peptide 1133-1147, biotinylated (SARS-CoV-2). As to the kind of experiment: DELFIA, IgG titrated on captured biotin-peptide. More on the design: unit not given beside the values.
Experiment [12] has as its target T1, SARS-CoV-2 spike S2 peptide 1149-1167 …. As to the kind of experiment: DELFIA, IgG titrated on captured biotin-peptide. More on the design: unit not given beside the values.

Numbering of substitutions follows the chain as printed. Like-named read-outs stand apart in the source and are kept apart here.

As a reminder, the Kd is the free concentration of one partner at which half of the binding sites on the other are occupied at equilibrium, for simple one-to-one binding. One may read the koff as a measure of how fast the partners let go of each other. By kon is commonly meant the rate constant with which the complex forms.

B1: AB-1 Fab (Fab, V domains shown)
VH: EVQLVESGAEVKKPGESLKISCKGSGYTFTRYWIGWVRQMPGKGLEWMGIIYPGDSDVRYSPSFQGHVTISADKSISTAYLQWNSLKASDTAMYYCARLPQYCSKGVCYRWFDPWGQGTLVTVSS
VL: EIVLTQSPSSVSASVGDRVTITCRASQGISSWLAWYQQKPGKAPKLLIYAASSLQSGVPSRFSGSGSGTDFTLTISSLQPEDFATYYCQQGHSFPYTFGQGTNLEIK
In the case of B1, the Kd in [1] was found to be 0.925 nM; in [2], 12.3 nM; in [3], 111 nM; in experiment [4] it was 83.1 nM; in [5], 0.9 nM. Also, the koff in [2] was 0.037 s⁻¹; in experiment [3], 0.0774 s⁻¹; in [4], 0.146 s⁻¹; in experiment [5], 0.00241 s⁻¹. For the same molecule, the on-rate (kon) in experiment [2] is 3e+06 M⁻¹ s⁻¹; in [3], 697000 M⁻¹ s⁻¹; in [4] it was 1.76e+06 M⁻¹ s⁻¹; in experiment [5] it was 2.61e+06 M⁻¹ s⁻¹.

B2: Reference Antibody Fab (Fab, V domains shown)
VH: B1 VH with V58T, K105N, Y109Q
VL: B1 VL with H92N
For B2, the Kd in [1] is 5.36 nM; in experiment [3], 311 nM; in [4] it was 244 nM; in experiment [5], 5.4 nM. Besides, the koff in experiment [3] turned out to be 0.0535 s⁻¹; in experiment [4], 0.0663 s⁻¹; in experiment [5], 0.00498 s⁻¹. The kon in experiment [3] worked out at 172000 M⁻¹ s⁻¹; in experiment [4], 272000 M⁻¹ s⁻¹; in experiment [5] it was 929000 M⁻¹ s⁻¹.

B3: Reference Antibody (antibody, V domains shown)
VH: B1 VH with V58T, K105N, Y109Q
VL: B1 VL with H92N
Regarding B3, the AUC in experiment [6] turned out to be 5050; in experiment [7], 6010; in experiment [8], 3.12e+06; in experiment [9], 3.26e+06; in experiment [10], 16100; in experiment [11] it was 3260. In experiment [12], this molecule gave an AUC of 3.05e+06.

B4: AB-1 (antibody, V domains shown)
VH: B1 VH
VL: B1 VL
Molecule B4 had an AUC in experiment [10] of 9860.
